Measured values taken from patent US20180037644A1 (Pfizer, published 2018).
Like-named read-outs stand apart in the source and are kept apart here.

Assays:
[1] = target: T1, cynomolgus monkey IL-33 (cys mut) (cynomolgus monkey); assay: SPR, IgG captured by anti-human Fc, IL-33 in solution
T1 construct: Variant in which the three cysteine residues are serine; N-terminal Met and C-terminal His6 in the entry; also called cyno IL-33; cyno IL-33 (cys mut)
T1 chain: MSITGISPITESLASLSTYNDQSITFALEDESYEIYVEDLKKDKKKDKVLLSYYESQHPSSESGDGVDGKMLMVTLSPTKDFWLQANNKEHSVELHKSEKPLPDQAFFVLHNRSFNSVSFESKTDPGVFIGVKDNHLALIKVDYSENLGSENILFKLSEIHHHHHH
Experimental: (§1) Binding to human and cynomolgus monkey IL-33 was measured by surface plasmon resonance using a BIAcore T200 instrument. An anti-human Fc antibody was immobilized on a CM5 chip, and anti-IL-33 antibodies were captured.

[2] = target: T2, human IL-33 (mm2) (human, UniProt O95760 112-270); assay: as above
T2 construct: Variant in which all four cysteine residues are serine; the entry carries an N-terminal Met and a C-terminal His6; Biotinylated in some assays; also called hIL-33 (mm2); huIL-33 (mm2)
T2 chain: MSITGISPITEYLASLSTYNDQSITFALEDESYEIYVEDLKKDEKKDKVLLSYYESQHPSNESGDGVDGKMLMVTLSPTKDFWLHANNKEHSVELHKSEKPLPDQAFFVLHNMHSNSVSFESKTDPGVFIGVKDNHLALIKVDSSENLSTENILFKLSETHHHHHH
Experimental: as §1

[3] = target: T3, human IL-33 WT (R&D) (human, UniProt O95760 112-270); assay: cell-based or functional assay
T3 sequence: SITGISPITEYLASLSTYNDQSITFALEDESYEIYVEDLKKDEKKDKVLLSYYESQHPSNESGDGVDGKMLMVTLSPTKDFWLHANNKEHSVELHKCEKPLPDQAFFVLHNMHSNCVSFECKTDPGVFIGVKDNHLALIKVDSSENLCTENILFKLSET

[4] = target: T1, cynomolgus monkey IL-33 (cys mut); assay: cell-based or functional assay
[5] = target: T2, human IL-33 (mm2); assay: cell-based or functional assay
[6] = target: T1, cynomolgus monkey IL-33 (cys mut); assay: cell-based or functional assay
[7] = target: T2, human IL-33 (mm2); assay: cell-based or functional assay
[8] = target: T3, human IL-33 WT (R&D); assay: cell-based or functional assay; remark: listed apart in the source
[9] = target: T2, human IL-33 (mm2); assay: cell-based or functional assay
[10] = target: T3, human IL-33 WT (R&D); assay: cell-based or functional assay; remark: listed apart in the source
[11] = target: T2, human IL-33 (mm2); assay: cell-based or functional assay
[12] = target: T1, cynomolgus monkey IL-33 (cys mut); assay: cell-based or functional assay
[13] = target: T2, human IL-33 (mm2); assay: cell-based or functional assay
[14] = target: T1, cynomolgus monkey IL-33 (cys mut); assay: cell-based or functional assay
[15] = target: T2, human IL-33 (mm2); assay: cell-based or functional assay
[16] = target: T3, human IL-33 WT (R&D); assay: cell-based or functional assay; remark: listed apart in the source
[17] = target: T1, cynomolgus monkey IL-33 (cys mut); assay: cell-based or functional assay
[18] = target: T2, human IL-33 (mm2); assay: cell-based or functional assay
[19] = target: T2, human IL-33 (mm2); assay: cell-based or functional assay
[20] = target: T2, human IL-33 (mm2); assay: cell-based or functional assay
[21] = target: T1, cynomolgus monkey IL-33 (cys mut); assay: cell-based or functional assay
[22] = target: T2, human IL-33 (mm2); assay: cell-based or functional assay

B1: 7E8 CDR graft (antibody, human IgG1, kappa)
heavy: HSEVQLVESGGGLVQPGGSLRLSCAASGFTFSSYWMYWVRQAPGKGLEWVASITPNGGNTYYPDSVKGRFTISRDNAKNSLYLQMNSLRAEDTAVYYCARGHYYYTSYSLGYWGQGTLVTVSSASTKGPSVFPLAPSSKSTSGGTAALGCLVKDYFPEPVTVSWNSGALTSGVHTFPAVLQSSGLYSLSSVVTVPSSSLGTQTYICNVNHKPSNTKVDKKVEPKSCDKTHTCPPCPAPEAAGAPSVFLFPPKPKDTLMISRTPEVTCVVVDVSHEDPEVKFNWYVDGVEVHNAKTKPREEQYNSTYRVVSVLTVLHQDWLNGKEYKCKVSNKALPAPIEKTISKAKGQPREPQVYTLPPSREEMTKNQVSLTCLVKGFYPSDIAVEWESNGQPENNYKTTPPVLDSDGSFFLYSKLTVDKSRWQQGNVFSCSVMHEALHNHYTQKSLSLSPGK
light: DIQMTQSPSSLSASVGDRVTITCKASQNINKHLDWYQQKPGKAPKLLIYFTNNLQTGVPSRFSGSGSGTDFTLTISSLQPEDFATYYCFQYNNGWTFGGGTKVEIKRTVAAPSVFIFPPSDEQLKSGTASVVCLLNNFYPREAKVQWKVDNALQSGNSQESVTEQDSKDSTYSLSSTLTLSKADYEKHKVYACEVTHQGLSSPVTKSFNRGEC
notes: also called CDR-grafted 7E8; 7E8 CDR-grafted
For B1, the Kd [1] was 0.142 nM, the Kd [2] was 0.171 nM and the “IC50, HEK293 ST2 NFkB” value [3] was 3.21 nM. The “IC50, HEK293 ST2 NFkB” value [4] was 0.069 nM, the “IC50, HEK293 ST2 NFkB” value [5] was 0.043 nM and the “IC50, HEK293 ST2 NFkB cyno IL-33” value [6] was 0.18 nM. For the same binder, the “IC50, HEK293 ST2 NFkB” value [7] was 0.114 nM, the “IC50, PBMC mm2” value [7] was 0.004 nM and the “IC50, whole blood mm2” value [7] was 0.009 nM. For the same binder, the “IC50, human whole blood” value [8] was 0.387 nM, the “IC50, human whole blood” value [9] was 0.014 nM and the “EC50 of IL-33 + 2 pM 7E8, HEK293 ST2 NFkB reporter cells” value [10] was 8 pM. For the same binder, the “EC50 of IL-33 + 20 pM 7E8, HEK293 ST2 NFkB reporter cells” value [10] was 10.2 pM, the “EC50 of IL-33 + 200 pM 7E8, HEK293 ST2 NFkB reporter cells” value [10] was 25.8 pM and the “EC50 of IL-33 + 2 nM 7E8, HEK293 ST2 NFkB reporter cells” value [10] was 0.103 nM. For the same binder, the “EC50 of IL-33 + 20 nM 7E8, HEK293 ST2 NFkB reporter cells” value [10] was 0.653 nM, the “EC50 of IL-33 + 0.2 pM 7E8, human PBMC donor 149” value [11] was 0.9 pM and the “EC50 of IL-33 + 0.2 pM 7E8, human PBMC donor 172” value [11] was 15.1 pM. For the same binder, the “EC50 of IL-33 + 2 pM 7E8, human PBMC donor 149” value [11] was 2.6 pM, the “EC50 of IL-33 + 2 pM 7E8, human PBMC donor 172” value [11] was 23.2 pM and the “EC50 of IL-33 + 20 pM 7E8, HEK293 ST2 NFkB reporter cells” value [11] was 2.6 pM. For the same binder, the “EC50 of IL-33 + 20 pM 7E8, human PBMC donor 149” value [11] was 29.1 pM, the “EC50 of IL-33 + 20 pM 7E8, human PBMC donor 172” value [11] was 154 pM and the “EC50 of IL-33 + 200 pM 7E8, HEK293 ST2 NFkB reporter cells” value [11] was 29.1 pM. For the same binder, the “EC50 of IL-33 + 200 pM 7E8, human PBMC donor 149” value [11] was 262 pM, the “EC50 of IL-33 + 200 pM 7E8, human PBMC donor 172” value [11] was 400 pM and the “EC50 of IL-33 + 2 nM 7E8, HEK293 ST2 NFkB reporter cells” value [11] was 0.262 nM. The “EC50 of IL-33 + 2 nM 7E8, human PBMC donor 149” value [11] was 2.83 nM, the “EC50 of IL-33 + 2 nM 7E8, human PBMC donor 172” value [11] was 1.22 nM and the “EC50 of IL-33 + 20 nM 7E8, HEK293 ST2 NFkB reporter cells” value [11] was 2.83 nM. For the same binder, the “IC50, HEK293 ST2 NFkB” value [12] was 0.131 nM, the “IC50, HEK293 ST2 NFkB” value [13] was 0.059 nM and the “IC50, HEK293 ST2 NFkB” value [14] was 0.077 nM. For the same binder, the “IC50, HEK293 ST2 NFkB” value [15] was 0.057 nM, the “IC50, HEK293 ST2 NFkB” value [16] was 0.322 nM and the “IC50, HEK293 ST2 NFkB” value [17] was 0.184 nM. The “IC50, HEK293 ST2 NFkB” value [18] was 0.093 nM, the “IC50, HEK293 ST2 NFkB” value [19] was 0.019 nM and the “IC50, IFN-γ production in human PBMC” value [20] was 0.0014 nM. For the same binder, the “IC50, HEK293 ST2 NFkB” value [21] was 0.054 nM and the “IC50, HEK293 ST2 NFkB” value [22] was 0.04 nM.
